The text below walks through data of US20100075394A1.

The target of the assay is ACP-HA labeled via ACP with Cy3. Kind of assay: mock pull-down on magnetic beads from an equimolar mixture of Cy3-ACP-HA and Cy3-ACP-CaM-PCP; SDS-PAGE and in-gel fluorescence scanning; reference is ACP-CaM-PCP.

For “primary-chloride-derivatized 12CA5 antibody immobilized via covalin on magnetic beads displaying BG”, the enrichment of ACP-HA over ACP-CaM-PCP turned out to be 80 fold.
